The values below come from paper doi:10.1101/2020.08.27.268672 (bioRxiv, 2020).

The term stoichiometry N denotes a count of units in the complex or per binding partner. By Kd is commonly meant the concentration at which binding is half-saturated. Low readings indicate higher affinity, high ones lower affinity.

The series “SEC-MALS” concerns the molecule itself. The series can be described thus: SEC-MALS. (In general: Size exclusion chromatography separates by hydrodynamic size, large species first.)
The target in series [1] is Rel^NTD (purified, in solution) (Bacillus subtilis 168, UniProt O54408 1-391). The experiment in a line: ITC. A general note: In ITC the heat of successive injections is recorded.
Chain of Rel^NTD (purified, in solution) (O54408 1-391): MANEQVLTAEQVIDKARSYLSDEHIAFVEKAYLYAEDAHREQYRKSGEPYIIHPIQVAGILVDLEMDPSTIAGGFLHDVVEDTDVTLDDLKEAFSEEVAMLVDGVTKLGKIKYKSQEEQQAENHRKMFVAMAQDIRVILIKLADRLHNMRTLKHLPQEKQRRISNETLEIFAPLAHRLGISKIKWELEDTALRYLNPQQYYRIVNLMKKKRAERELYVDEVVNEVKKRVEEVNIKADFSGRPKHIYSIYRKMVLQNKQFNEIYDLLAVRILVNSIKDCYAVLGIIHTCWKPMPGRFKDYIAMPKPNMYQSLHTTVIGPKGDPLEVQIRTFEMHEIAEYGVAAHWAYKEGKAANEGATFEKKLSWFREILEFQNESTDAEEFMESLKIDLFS

B1: DarB (natural protein, Bacillus subtilis 168)
chain: ISLQSDQLLEATVGQFMIEADKVAHVQVGNNLEHALLVLTKTGYTAIPVLDPSYRLHGLIGTNMIMNSIFGLERIEFEKLDQITVEEVMLTDIPRLHINDPIMKGFGMVINNGFVCVENDEQVFEGIFTRRVVLKELNKHIRSLNK
For B1, in “SEC-MALS”, the “stoichiometry N” value was found to be 2. Further, in series [1], the affinity, expressed as Kd, was 650 nM and the “stoichiometry N” value stood at 1.
